In patent US20100015650 one finds Signal to Noise Ratio with BRB1 Peptide (TR-FRET kinase assay; kinase 3 nM), Signal to Noise ratio with BRB1 Peptide (TR-FRET kinase assay; kinase 0.5 nM) and Signal to Noise ratio with BRB1 Peptide (TR-FRET kinase assay; kinase 0.25 nM) data, which are given here for four proteins.

This series addresses T1, BRB1 tyrosine kinase substrate peptide.
T1 chain: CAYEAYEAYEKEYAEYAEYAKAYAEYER

B1: FGFR4 (protein)
chain: RGQALHGRHPRPPATVQKLSRFPLARQFSLESGSSGKSSSSLVRGVRLSSSGPALLAGLVSLDLPLDPLWEFPRDRLVLGKPLGEGCFGQVVRAEAFGMDPARPDQASTVAVKMLKDNASDKDLADLVSEMEVMKLIGRHKNIINLLGVCTQEGPLYVIVECAAKGNLREFLRARRPPGPDLSPDGPRSSEGPLSFPVLVSCAYQVARGMQYLESRKCIHRDLAARNVLVTEDNVMKIADFGLARGVHHIDYYKKTSNGRLPVKWMAPEALFDRVYTHQSDVWSFGILLWEIFTLGGSPYPGIPVEELFSLLREGHRMDRPPHCPPELYGLMRECWHAAPSQRPTFKQLVEALDKVLLAVSEEYLDLRLTFGPYSPSGGDASSTCSSSDSVFSHDPLPLGSSSFPFGSGVQT
Regarding B1, the Signal to Noise Ratio with BRB1 Peptide (TR-FRET kinase assay; kinase 3 nM) came to 17.7.

B2: EphB4 (protein)
chain: LCLRKQSNGREAEYSDKHGQYLIGHGTKVYIDPFTYEDPNEAVREFAKEIDVSYVKIEEVIGAGEFGEVCRGRLKAPGKKESCVAIKTLKGGYTERQRREFLSEASIMGQFEHPNIIRLEGVVTNSMPVMILTEFMENGALDSFLRLNDGQFTVIQLVGMLRGIASGMRYLAEMSYVHRDLAARNILVNSNLVCKVSDFGLSRFLEENSSDPTYTSSLGGKIPIRWTAPEAIAFRKFTSASDAWSYGIVMWEVMSFGERPYWDMSNQDVINAIEQDYRLPPPPDCPTSLHQLMLDCWQKDRNARPRFPQVVSALDKMIRNPASLKIVARENGGASHPLLDQRQPHYSAFGSVGEWLRAIKMGRYEESFAAAGFGSFELVSQISAEDLLRIGVTLAGHQKKILASVQHMKSQAKPGTPGGTGGPAPQY
As for B2, the Signal to Noise ratio with BRB1 Peptide (TR-FRET kinase assay; kinase 0.5 nM) came to 29.8.

B3: FGFR3 (protein)
chain: RLRSPPKKGLGSPTVHKISRFPLKRQVSLESNASMSSNTPLVRIARLSSGEGPTLANVSELELPADPKWELSRARLTLGKPLGEGCFGQVVMAEAIGIDKDRAAKPVTVAVKMLKDDATDKDLSDLVSEMEMMKMIGKHKNIINLLGACTQGGPLYVLVEYAAKGNLREFLRARRPPGLDYSFDTCKPPEEQLTFKDLVSCAYQVARGMEYLASQKCIHRDLAARNVLVTEDNVMKIADFGLARDVHNLDYYKKTTNGRLPVKWMAPEALFDRVYTHQSDVWSFGVLLWEIFTLGGSPYPGIPVEELFKLLKEGHRMDKPANCTHDLYMIMRECWHAAPSQRPTFKQLVEDLDRVLTVTSTDEYLDLSAPFEQYSPGGQDTPSSSSSGDDSVFAHDLLPPAPPSSGGSRT
In the case of B3, the Signal to Noise ratio with BRB1 Peptide (TR-FRET kinase assay; kinase 0.25 nM) came out at 24.4.

B4: FGFR2 (protein)
chain: RMKNTTKKPDFSSQPAVHKLTKRIPLRRQVTVSAESSSSMNSNTPLVRITTRLSSTADTPMLAGVSEYELPEDPKWEFPRDKLTLGKPLGEGCFGQVVMAEAVGIDKDKPKEAVTVAVKMLKDDATEKDLSDLVSEMEMMKMIGKHKNIINLLGACTQDGPLYVIVEYASKGNLREYLRARRPPGMEYSYDINRVPEEQMTFKDLVSCTYQLARGMEYLASQKCIHRDLAARNVLVTENNVMKIADFGLARDINNIDYYKKTTNGRLPVKWMAPEALFDRVYTHQSDVWSFGVLMWEIFTLGGSPYPGIPVEELFKLLKEGHRMDKPANCTNELYMMMRDCWHAVPSQRPTFKQLVEDLDRILTLTTNEEYLDLSQPLEQYSPSYPDTRSSCSSGDDSVFSPDPMPYEPCLPQYPHINGSVKT
On to B4, for which the Signal to Noise ratio with BRB1 Peptide (TR-FRET kinase assay; kinase 0.25 nM) is 27.1.
